How the values were obtained:
[1] = target: F protein of RSV reference strain RSV-A Long (ATCC VR-26) (RSV-A Long (ATCC VR-26)) (UniProt P12568); experiment: cell-based or functional assay
[2] = target: F protein of RSV reference strain RSV-B (ATCC VR 1580) (RSV-B (ATCC VR 1580)) (UniProt P13843); experiment: cell-based or functional assay
[3] = target: F protein on intact RSV particles (Example 10, strain or isolate not stated) (RSV, strain not stated); experiment: competition ELISA; RSV particles pre-incubated with control mAb at 20 µg/mL (the reference); competitor (coating mAb): AR201
[4] = target: F protein on intact RSV particles (Example 10, strain or isolate not stated) (RSV, strain not stated); experiment: competition ELISA; RSV particles pre-incubated with control mAb at 20 µg/mL (the reference); competitor (coating mAb): palivizumab

F protein of RSV reference strain RSV-A Long (ATCC VR-26) (RSV-A Long (ATCC VR-26)), sequence (P12568 26-574): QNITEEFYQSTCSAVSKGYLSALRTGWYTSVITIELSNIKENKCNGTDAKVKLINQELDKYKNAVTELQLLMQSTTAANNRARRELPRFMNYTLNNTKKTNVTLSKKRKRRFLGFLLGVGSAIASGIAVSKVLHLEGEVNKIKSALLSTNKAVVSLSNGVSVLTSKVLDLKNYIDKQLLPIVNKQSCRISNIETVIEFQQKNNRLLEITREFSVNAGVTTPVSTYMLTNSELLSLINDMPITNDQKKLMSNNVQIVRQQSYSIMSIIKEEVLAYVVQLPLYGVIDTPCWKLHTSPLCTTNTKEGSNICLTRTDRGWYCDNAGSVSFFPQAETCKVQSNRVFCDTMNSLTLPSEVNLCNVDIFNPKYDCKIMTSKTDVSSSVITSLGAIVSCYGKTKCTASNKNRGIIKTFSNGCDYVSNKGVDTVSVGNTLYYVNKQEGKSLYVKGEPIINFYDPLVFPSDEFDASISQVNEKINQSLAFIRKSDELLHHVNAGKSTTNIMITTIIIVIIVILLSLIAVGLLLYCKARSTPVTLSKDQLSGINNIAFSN
F protein of RSV reference strain RSV-B (ATCC VR 1580) (RSV-B (ATCC VR 1580)), sequence (P13843 26-574): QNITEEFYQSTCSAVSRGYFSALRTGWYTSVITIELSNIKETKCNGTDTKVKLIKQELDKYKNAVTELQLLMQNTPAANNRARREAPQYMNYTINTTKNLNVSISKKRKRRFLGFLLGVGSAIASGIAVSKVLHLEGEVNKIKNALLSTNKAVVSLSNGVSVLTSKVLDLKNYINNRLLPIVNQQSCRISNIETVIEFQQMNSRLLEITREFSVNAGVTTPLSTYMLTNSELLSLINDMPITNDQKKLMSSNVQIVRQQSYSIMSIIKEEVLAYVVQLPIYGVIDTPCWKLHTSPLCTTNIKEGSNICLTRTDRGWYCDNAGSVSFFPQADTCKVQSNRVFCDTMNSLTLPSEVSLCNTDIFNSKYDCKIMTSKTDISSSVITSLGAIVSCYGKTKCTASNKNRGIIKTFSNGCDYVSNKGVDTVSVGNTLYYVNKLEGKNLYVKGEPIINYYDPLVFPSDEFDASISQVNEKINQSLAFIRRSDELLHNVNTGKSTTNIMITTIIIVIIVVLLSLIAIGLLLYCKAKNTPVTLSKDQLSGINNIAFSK

| Substance | Estimated half-maximal effective antibody concentration (ng/mL), plaque neutralization on Vero cells [1] | Estimated half-maximal effective antibody concentration (ng/mL), plaque neutralization on Vero cells [2] | % binding of RSV to the coating mAb relative to control IgG [3] | % binding of RSV to the coating mAb relative to control IgG [4] |
| --- | --- | --- | --- | --- |
| palivizumab (antibody) | 100 ng/mL | 200 ng/mL |  |  |
| unrelated fully human monoclonal IgG1 antibody (control) | > 1000 ng/mL | > 1000 ng/mL | 100% | 100% |

— patent US20160122418A1
